Laboratory results: the supplement of paper PMC9170038

Legend:
MS2 coat protein = assay: apparent KD of MS2 coat protein; higher = weaker reporter binding; conditions: Eterna round: R107
Experimental: (§1)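 RNA-MaP round R107: designed RNA switches with theophylline, tryptophan, arginine or FMN aptamers are transcribed on-chip within common flanks. They are titrated with SNAP-549-labelled MS2 coat protein in RNA-MaP buffer (100 mM Tris pH 7.5, 80 mM KCl, 4 mM MgCl2), without ligand or with the indicated ligand. Median apparent KD per design.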

[1] = tested on: K4 kissing-loop RNA reporter; assay: apparent KD of K4 kissing-loop reporter; higher = weaker reporter binding; conditions: Eterna round: R107;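 note: bound reporter read as fluorescence of individual clusters on recovered sequencing chips by microscopy, with normalized cluster intensities fitted with a binding model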
Experimental: as §1, with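 “a labelled K4 kissing-loop RNA reporter” for “SNAP-549-labelled MS2 coat protein”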

[2] = input ligand: theophylline 20 uM
[3] = input ligand: theophylline 2 mM
[4] = input ligand: tryptophan 2.4 mM

Row | Sequence | apparent KD of MS2 coat protein (MS2 coat protein; input ligand: arginine 13.2 mM) [nM] | apparent KD of MS2 coat protein (MS2 coat protein; input ligand: none) [nM] | apparent KD of MS2 coat protein (MS2 coat protein; [2]) [nM] | apparent KD of MS2 coat protein (MS2 coat protein; [3]) [nM] | apparent KD of MS2 coat protein (MS2 coat protein; [4]) [nM] | apparent KD of K4 kissing-loop reporter ([1]; input ligand: FMN 200 uM) [nM] | apparent KD of K4 kissing-loop reporter ([1]; input ligand: arginine 13.2 mM) [nM] | apparent KD of K4 kissing-loop reporter ([1]; input ligand: none) [nM] | apparent KD of K4 kissing-loop reporter [1, 2] [nM] | apparent KD of K4 kissing-loop reporter [1, 4] [nM]
1 | UCGCUCUGGGUGAGAUCCGGAGAUGUGGAAGGAGCGCUGGUUCCAGCAGGUAGGUCGCCAACGGACAUGAGGAUCACCCAUGUAC [Same State - Arginine A (Freestyle 13)] | 39.2 | 51.7 | 63.1 | 70.4 | 45.9 | – | – | – | – | –
2 | UGGCAAGAGGGAAGGAGCGUCAGCUGAGUCACAUGAGGAUCACCCAUGUAGCACAUGGUGUGACAGGUAGGUCGCCCUCUGCCGU [SS-ArgB11] | 34.4 | 21.5 | 36.6 | 28.8 | 23.7 | – | – | – | – | –
3 | AAGCUGGGUGUAAAAUAAAUAAUCACUGAUACCAGACUAUGAGAUGUCCCUUGGCAGCAGAAACAUGAGGAUCACCCAUGUAAUA [JR_Nu_ExcTheophyA_Sub027] | 21.4 | – | 25.5 | – | 27.1 | – | – | – | – | –
4 | GUUGGUUUGGGAAGGAGCGGGUAUGUUGUCUACUUGAUCCUAACAUGAGGAUCACCCAUGUCCCAGGUAGGUCGCCCAGGCUUUG [12.aD] | 35.7 | 139 | 230 | 103 | 98.4 | – | – | – | – | –
5 | UUUUAAAGCAUGGCGUAUCGGAAAACCGAUACCAGUACAGAAAUGUACCCUUGGCAGCGGCAUUUUACAUGAGGAUCACCCAUGU [Ex Theophylline A 2] | 16 | – | 18.4 | – | 14.5 | – | – | – | – | –
6 | GAUCCUCGUACGGAUACCAGCGACUAACAUGAGGAUCACCCAUGUGAUAAAGAAAAUAUUUGCCCUUGGCAGCCGAAUAGAUAGU [#21 Same State - Theophylline B] | 36.5 | – | 91.5 | – | 74.2 | – | – | – | – | –
7 | CCCAGUUAUAACAAAGGAAUUAUACUCGAAGGAGCGUCAUAGUAGGCAGGUAGGUCGCGAGACAUGAGGAUCACCCAUGUAGAGA [k,lmullin] | 32.1 | 42.3 | 56.3 | 49.4 | 50 | – | – | – | – | –
8 | AUAACAUGAGGAUCACCCAUGUAAGCAGAUACCAGCUAGGAAACUAGCCCUUGGCAGCUGCAAUCAUGGGUGUGGUAUCUGCUAA [(M1)-(M2)-(T1)-(T2)-(M)'-(T)'_Design5] | 21.5 | – | 39.7 | – | 16.4 | – | – | – | – | –
9 | AAGGUGAUCCGUGAUACCAGCUCAACAUGAGGAUCACCCAUGUAACGGACGAAAGUCCGGAGCCCUUGGCAGCACGGUAAUAAUA [(M)'-(Theo1)-(Ms2)-(Theo2)-(M'')_Design2b] | 10.4 | – | 15.1 | – | 11.6 | – | – | – | – | –
10 | UCGUUUUAGUCGGCCGCCACUGUAUGCAUGUUUAACAUGAGGAUCACCCAUGUCCCGUACUAUAACAGGACCGGGACGUAAUAGA [JR_SSTryptoB_Sub006] | 112 | – | 207 | 936 | – | – | – | – | – | –
11 | UGUACCAUGUCGGCCGCCACUCAUGAUAAGCAUGAGGAUCACCCAUGUAGCGUCAAAGACGCUAUGAGGACCGGGACAUGGUACU [TryBS Zipper 2] | 34.3 | 34.7 | 47.1 | 41.2 | 13.2 | – | – | – | – | –
12 | UAUACUAUGAAAGUAGUAUAUACGUGUUGACGAGGACCGGUACGGCCGCCACUCGACAUGAGGAUCACCCAUGUAUAGAAUAAGU [TrypA_F1] | 18.6 | 23.7 | 24.4 | 30 | 15.3 | – | – | – | – | –
13 | AAAUAAAUACAUGAGGAUCACCCAUGUGAAGGAGCGGCCGUUAGGCCAGGUAGGUCGCACAUGAAAGGGAAGCGAAAGAAAUAAU [MAT - Exclusion Arginine A - Mod of Eli - D7] | 12.2 | 18.1 | 25.9 | 19 | 19.2 | – | – | – | – | –
14 | GCCCUGCGCCCGGGACCGGCAAGAUCCAUGCGAGGACCGGUACGGCCGCCACUCGCAGACGUACAUGAGGAUCACCCAUGUCCUC [theeternabot_exclusion_MS2_Trp_A_24] | 140 | – | 838 | 867 | – | – | – | – | – | –
15 | UACUUGCGGUCGGCCGCCACUACGAGGCAGACCUUCACAUGAGGAUCACCCAUGUAGUCGGCUAGUAGGACCGGGAUGGCAUAAA [Solasoce] | 28.6 | 29.2 | 41.9 | 41.8 | 16.3 | – | – | – | – | –
16 | ACAUCUUGUACGGCCGCCACUAACAGAUUCAGCGUCGGAGCCAACUACAUGAGGAUCACCCAUGUUAGGACCGGGUACUGUCCAC [theeternabot_exclusion_MS2_Trp_B_47] | 15.8 | – | 20.7 | 21 | – | – | – | – | – | –
17 | UGAUUGAACGGAAGGAGCGUGAAGAGAGAGAAACAUGAGGAUCACCCAUGUAGAGAGAGAACACAGGUAGGUCGCCGAGAGAUUG [11.B] | 14.5 | 13.4 | 21.2 | 14.7 | 11.2 | – | – | – | – | –
18 | GUGUGCGGCACGGCCGCCACUGCGGUGGUGUGACAUGAGGAUCACCCAUGUUGUCAUGCGGCCCUUAGGACCGGGUGGCGUGCAC [#1 Exclusion - Tryptophan B Attempt #17 (HarryS)] | 27.4 | 37.3 | 61.2 | 50.4 | 46.5 | – | – | – | – | –
19 | AGUACAAUGGCGGCCGCCACUCAAUGGGCGACCGAAAGGUCGCAUCACUCAGUGAUGUUGAGUGAGAGGACCGGGCCUUUGUACA [Omei KL Tryp B SS B v8] | – | – | – | – | – | 733 | 497 | 611 | 595 | 270
20 | AAGUGAUGUUGUAGUGAUGUUGUGAUGUUGCAGGAUAUAUAGUGAUGUAGAAGGGUAUGUGCAGUUUUUUUUUUUGAGUGUUGAU [dpdmullin] | – | – | – | – | – | 76.6 | 34.2 | 59.9 | 43.1 | 61
21 | UUUAAAUAUAGUGAUGUUAUAUAACAAUGACGAGGACCGGUACGGCCGCCACUCGAGAGAGAUAAUGGUCGUUCGAAUCGAACGC [AstrosSSTryA#6] | – | – | – | – | – | 599 | 779 | 672 | 574 | 410
22 | GAUUCAGUGAUGUUGGAAGGCGAGCGGGAUACCAGCGGAGACUCACGCCCUUGGCAGCCCACAUAUCCCAGGUAGAUAAUAGAUC [Same State - Theophylline A (Freestyle 7)] | – | – | – | – | – | 201 | 123 | 178 | 160 | 180
23 | UGACUGGACUGAAGGAGCGCGCGAGACAAAGUCUCGAACUGCUAGUGAUGUUAGCAAAUAACGCAGGUAGGUCGCAGUCUAGUCU [ArgBS 11 #SwitchBubble #StaticStem #DoubleMagnet] | – | – | – | – | – | 135 | 100 | 137 | 92.3 | 124
24 | AGAACUGUCUUGGAUACCAGUGAUGUUGGUAUCGAUGUGUGAGUGCAAAGCGUCCCAGAGUGCCCUUGGCAGCUAAGACUGUUCA [#16 K4 Theophylline B Exclusion] | – | – | – | – | – | 277 | 230 | 269 | 261 | 259
25 | GGGUUUGCCGGAAGGAGCGCACUAUGGAGUGAUGUUCCAUGACCGCACAGCUUGCGGUCAGUGCAGGUAGGUCGCCGGUAGCGUU [Maedzaus] | – | – | – | – | – | 205 | 203 | 239 | 271 | 179
26 | UUUAUAUAGUCGGCCGCCACUGAUUUUUUUAUAUGUUUAUGUUUAUACGAGUGAUGUUCGAUAUACAGGACCGGGACUUUGGUUA [JR_SSTryptoB_Sub019] | – | – | – | – | – | 145 | 207 | 159 | 224 | 115
27 | UGGAUAUAGUUUAGUCUGGUGAGGUCAGAUACCAGACUAGCGAUAGUCCCUUGGCAGCUGAUUAUGAUUGAGUGAUGUUCAAUCG [Theo A Ex t9] | – | – | – | – | – | 187 | 151 | 170 | 157 | 157
28 | GGCAUGGUGGCAGGAUAUCCUAAUAGAGUGAUGUUCUAGCCCUCGUAGGCGAAAGCCUACGAGGGCGGAGAAGGGCCACCAUGCC | – | – | – | – | – | 263 | 384 | 697 | 835 | 431
29 | CGCAGUGAUGUUGCUAUUAUUCUUGGUUAACGAGGACCGGUACGGCCGCCACUCGAUUUCUGUCUAGUCCAGUGUUUUUUUGAGU [whbob_EX_Tryp_A_t7] | – | – | – | – | – | 363 | 464 | 439 | 492 | 263
30 | AUCAGUUCAGCUGAUACCAGUCAGGAGUGAUGUUCCUGCUCGCGUCAGCCGCGUCGACAAGACCCUUGGCAGCAGCUCUAAGUGU [theeternabot_exclusion_KL_Theo_B_40] | – | – | – | – | – | 114 | 98.1 | 110 | 103 | 110
